From the supplement of paper PMC11246515
± gives the standard deviation of the averaged measurements.

Experiment: total protein half-life in vivo (active degradation + dilution); higher = more stable protein
[1] = E. coli NCM3722 delta-clpP delta-lon delta-hslV, growth: N-lim chemostat, doubling time 6 h
[2] = E. coli NCM3722 delta-clpP, growth: N-lim chemostat, doubling time 6 h
[3] = E. coli NCM3722 delta-hslV, growth: N-lim chemostat, doubling time 6 h
[4] = E. coli NCM3722 delta-lon, growth: N-lim chemostat, doubling time 6 h
[5] = E. coli NCM3722 delta-smpB, growth: N-lim chemostat, doubling time 6 h
[6] = wild type E. coli NCM3722, growth: C-lim chemostat, doubling time 3 h
[7] = wild type E. coli NCM3722, growth: C-lim chemostat, doubling time 6 h
[8] = wild type E. coli NCM3722, growth: C-lim chemostat, doubling time 12 h
[9] = wild type E. coli NCM3722, growth: N-lim chemostat, doubling time 6 h
[10] = wild type E. coli NCM3722, growth: N-lim chemostat, doubling time 12 h
[11] = wild type E. coli NCM3722, growth: P-lim chemostat, doubling time 6 h
[12] = wild type E. coli NCM3722, growth: P-lim chemostat, doubling time 12 h

Sequence | total protein half-life in vivo [1] | total protein half-life in vivo [2] | total protein half-life in vivo [3] | total protein half-life in vivo [4] | total protein half-life in vivo [5] | total protein half-life in vivo [6] | total protein half-life in vivo [7] | total protein half-life in vivo [8] | total protein half-life in vivo [9] | total protein half-life in vivo [10] | total protein half-life in vivo [11] | total protein half-life in vivo [12]
MTTQTVSGRRYFTKAWLMEQKSLIALLVLIAIVSTLSPNFFTINNLFNILQQTSVNAIMAVGMTLVILTSGIDLSVGSLLALTGAVAASIVGIEVNALVAVAAALALGAAIGAVTGVIVAKGRVQAFIATLVMMLLLRGVTMVYTNGSPVNTGFTENADLFGWFGIGRPLGVPTPVWIMGIVFLAAWYMLHHTRLGRYIYALGGNEAATRLSGINVNKIKIIVYSLCGLLASLAGIIEVARLSSAQPTAGTGYELDAIAAVVLGGTSLAGGKGRIVGTLIGALILGFLNNGLNLLGVSSYYQMIVKAVVILLAVLVDNKKQ [P0AGI1] | 6.66 ± 0.66 h | 6.38 ± 1.3 h | 5.86 ± 0.5 h | 5.86 ± 0.38 h | 6.072 ± 0.021 h | 2.957 ± 0.015 h | 5.74 ± 0.19 h | 12.5 ± 2.2 h | 6.28 ± 0.51 h | 10.5 ± 3.5 h | 5.48 ± 0.19 h | 13.2 ± 1.3 h
MTTQYGFFIDSSRCTGCKTCELACKDFKDLGPEVSFRRIYEYAGGDWQEDNGVWHQNVFAYYLSISCNHCDDPACTKVCPSGAMHKREDGFVVVDEDVCIGCRYCHMACPYGAPQYNAEKGHMTKCDGCYSRVAEGKQPICVESCPLRALEFGPIEELRQKHGTLAAVAPLPRAHFTKPNIVIKPNANSRPTGDTTGYLANPEEV [P0AAJ1] | 4.03 h | – | – | – | – | – | – | – | – | – | – | –
MTTQYGFFIDSSRCTGCKTCELACKDYKDLTPEVSFRRIYEYAGGDWQEDNGVWHQNVFAYYLSISCNHCEDPACTKVCPSGAMHKREDGFVVVDEDVCIGCRYCHMACPYGAPQYNETKGHMTKCDGCYDRVAEGKKPICVESCPLRALDFGPIDELRKKHGDLAAVAPLPRAHFTKPNIVIKPNANSRPTGDTTGYLANPKEV | 5.26 h | – | – | – | – | – | 6.7 h | – | – | – | – | –
MTTRLTRWLTTLDNFEAKMAQLPAVRRYGRLTRATGLVLEATGLQLPLGATCVIERQNGSETHEVESEVVGFNGQRLFLMPLEEVEGVLPGARVYAKNISAEGLQSGKQLPLGPALLGRVLDGSGKPLDGLPSPDTTETGALITPPFNPLQRTPIEHVLDTGVRPINALLTVGRGQRMGLFAGSGVGKSVLLGMMARYTRADVIVVGLIGERGREVKDFIENILGAEGRARSVVIAAPADVSPLLRMQGAAYATRIAEDFRDRGQHVLLIMDSLTRYAMAQREIALAIGEPPATKGYPPSVFAKLPALVERAGNGISGGGSITAFYTVLTEGDDQQDPIADSARAILDGHIVLSRRLAEAGHYPAIDIEASISRAMTALISEQHYARVRTFKQLLSSFQRNRDLVSVGAYAKGSDPMLDKAIALWPQLEGYLQQGIFERADWEASLQGLERIFPTVS | 3.91 h | – | – | – | – | 2.04 ± 0.092 h | 3.72 h | 4.73 ± 0.2 h | – | – | – | –
MTTRQHSSFAIVFILGLLAMLMPLSIDMYLPALPVISAQFGVPAGSTQMTLSTYILGFALGQLIYGPMADSFGRKPVVLGGTLVFAAAAVACALANTIDQLIVMRFFHGLAAAAASVVINALMRDIYPKEEFSRMMSFVMLVTTIAPLMAPIVGGWVLVWLSWHYIFWILALAAILASAMIFFLIKETLPPERRQPFHIRTTIGNFAALFRHKRVLSYMLASGFSFAGMFSFLSAGPFVYIEINHVAPENFGYYFALNIVFLFVMTIFNSRFVRRIGALNMFRSGLWIQFIMAAWMVISALLGLGFWSLVVGVAAFVGCVSMVSSNAMAVILDEFPHMAGTASSLAGTFRFGIGAIVGALLSLATFNSAWPMIWSIAFCATSSILFCLYASRPKKR | 7.89 h | – | – | – | – | – | – | – | – | – | 6.0641 ± 0.0035 h | 11.8 h
MTTYDRNRNAITTGSRVMVSGTGHTGKILSIDTEGLTAEQIRRGKTVVVEGCEEKLAPLDLIRLGMN | 4.22 ± 0.059 h | – | 4.25 ± 0.64 h | 4.53 ± 0.13 h | 4.42 ± 0.76 h | 2.88 ± 0.38 h | 4.16 ± 0.068 h | 5.42 ± 0.38 h | 4.075 ± 0.023 h | 6.36 ± 0.21 h | 4.52 ± 0.25 h | 9.35 ± 0.55 h
MTVETQLNPTQPVNQQIYRILRRDIVHCLIAPGTPLSEKEVSVRFNVSRQPVREAFIKLAENGLIQIRPQRGSYVNKISMAQVRNGSFIRQAIECAVARRAASMITESQCYQLEQNLHQQRIAIERKQLDDFFELDDNFHQLLTQIADCQLAWDTIENLKATVDRVRYMSFDHVSPPEMLLRQHLDIFSALQKRDGDAVERAMTQHLQEISESVRQIRQENSDWFSEE [P0ACM2] | 6.15 ± 0.24 h | 7.72 h | 5.98 ± 0.4 h | 5.9 ± 0.9 h | 4.12 ± 1.4 h | 3.42 ± 0.53 h | 6.44 ± 1.2 h | 10.2 ± 0.65 h | 5.71 ± 0.13 h | 11.7 ± 1.3 h | 5.18 ± 0.51 h | 9.7 ± 1.7 h
